Measured values as given in patent US20080274480A1.

Target: BoNT/A receptor on mouse brain synaptosomes (mouse)

inactive BoNT/A toxin (formaldehyde-inactivated BoNT/A, Metabiologics, Inc.), unlabeled (from UniProt P0DPI1 2-1296)
IC50: 13 nM
percent inhibition: 100%
percent inhibition at 2.0 µg: 98%
